Test [1] concerns the target T1, human FLAG-SCAPER (recombinant, purified) (human, UniProt Q9BY12 1-1400).
T1 construct: SCAPER, human cDNA from Genscript recloned with an N-terminal FLAG tag; construct names (aa351-1400) imply 1400 residues; In the cryo-EM map only the part from residue 859 on (CTD) was resolved; also called recombinant SCAPER; source: Expi293 cells, transfected, purified (anti-FLAG resin, 3xFLAG peptide elution); not shown: FLAG, N-terminal, kept
T1 sequence: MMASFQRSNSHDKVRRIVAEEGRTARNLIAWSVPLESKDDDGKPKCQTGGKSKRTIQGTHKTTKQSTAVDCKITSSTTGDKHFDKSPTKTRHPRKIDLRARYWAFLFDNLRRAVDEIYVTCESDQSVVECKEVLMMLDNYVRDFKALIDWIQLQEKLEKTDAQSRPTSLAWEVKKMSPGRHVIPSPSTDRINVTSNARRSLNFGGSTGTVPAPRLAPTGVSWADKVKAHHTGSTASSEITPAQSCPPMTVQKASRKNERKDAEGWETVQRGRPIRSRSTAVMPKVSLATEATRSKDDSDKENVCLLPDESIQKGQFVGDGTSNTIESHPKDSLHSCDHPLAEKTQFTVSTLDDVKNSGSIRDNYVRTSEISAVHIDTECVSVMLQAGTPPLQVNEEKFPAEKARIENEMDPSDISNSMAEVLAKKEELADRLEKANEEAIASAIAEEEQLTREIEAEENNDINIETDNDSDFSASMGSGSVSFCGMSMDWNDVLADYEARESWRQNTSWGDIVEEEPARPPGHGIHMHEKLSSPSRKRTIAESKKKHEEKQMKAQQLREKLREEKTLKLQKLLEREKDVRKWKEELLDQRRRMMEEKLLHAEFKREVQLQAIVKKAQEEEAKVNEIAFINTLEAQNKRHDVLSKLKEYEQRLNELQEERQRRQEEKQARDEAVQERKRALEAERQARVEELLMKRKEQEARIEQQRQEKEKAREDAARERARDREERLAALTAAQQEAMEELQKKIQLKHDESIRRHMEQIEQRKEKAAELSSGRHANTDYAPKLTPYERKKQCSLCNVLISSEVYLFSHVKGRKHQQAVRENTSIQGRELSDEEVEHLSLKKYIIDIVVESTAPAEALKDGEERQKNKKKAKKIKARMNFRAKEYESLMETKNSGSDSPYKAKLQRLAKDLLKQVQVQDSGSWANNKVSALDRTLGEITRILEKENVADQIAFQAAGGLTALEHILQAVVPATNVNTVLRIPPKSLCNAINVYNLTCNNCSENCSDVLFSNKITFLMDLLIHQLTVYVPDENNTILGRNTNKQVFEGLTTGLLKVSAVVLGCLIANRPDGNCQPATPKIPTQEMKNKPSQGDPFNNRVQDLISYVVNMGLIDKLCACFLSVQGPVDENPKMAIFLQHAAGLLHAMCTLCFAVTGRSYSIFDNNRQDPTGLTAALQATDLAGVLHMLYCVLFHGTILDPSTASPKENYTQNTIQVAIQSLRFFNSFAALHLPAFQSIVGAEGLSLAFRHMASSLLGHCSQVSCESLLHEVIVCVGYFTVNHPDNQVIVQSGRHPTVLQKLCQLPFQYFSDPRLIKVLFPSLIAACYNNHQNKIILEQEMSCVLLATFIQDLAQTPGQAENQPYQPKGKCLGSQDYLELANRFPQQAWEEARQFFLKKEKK
As to the kind of experiment: cryo-EM structure; β-tubulin RNCs from rabbit reticulocyte lysate with recombinant Strep-TTC5 and FLAG-SCAPER, affinity purified via TTC5; SCAPER with TTC5. As to conditions: both partners purified.

In test [2] the target is T2, human SCAPER-FLAG (recombinant, purified) (human, UniProt Q9BY12 1-1400).
T2 construct: SCAPER, human cDNA from Genscript; construct names (aa351-1400) imply 1400 residues; also called S-phase cyclin A associated protein residing in the ER; source: Expi293 cells, transfected, purified (anti-FLAG resin, 3xFLAG peptide elution); not shown: FLAG, C-terminal, kept
T2 sequence: T1 sequence
The test can be described thus: pull-down; 100 nM SCAPER-FLAG and 150 nM Strep-TTC5 in IP buffer (50 mM HEPES pH 7.4, 100 mM KAc, 5 mM MgAc2, 1 mM DTT, 0.01% digitonin), 4°C; Streptactin magnetic beads; Coomassie. As to conditions: both partners purified.

B1: human 6xHis-TEV-Twin-Strep-TTC5 (natural protein)
chain: MMADEEEEVKPILQKLQELVDQLYSFRDCYFETHSVEDAGRKQQDVQKEMEKTLQQMEEVVGSVQGKAQVLMLTGKALNVTPDYSPKAEELLSKAVKLEPELVEAWNQLGEVYWKKGDVAAAHTCFSGALTHCRNKVSLQNLSMVLRQLRTDTEDEHSHHVMDSVRQAKLAVQMDVHDGRSWYILGNSYLSLYFSTGQNPKISQQALSAYAQAEKVDRKASSNPDLHLNRATLHKYEESYGEALEGFSRAAALDPAWPEPRQREQQLLEFLDRLTSLLESKGKVKTKKLQSMLGSLRPAHLGPCSDGHYQSASGQKVTLELKPLSTLQPGVNSGAVILGKVVFSLTTEEKVPFTFGLVDSDGPCYAVMVYNIVQSWGVLIGDSVAIPEPNLRLHRIQHKGKDYSFSSVRVETPLLLVVNGKPQGSSSQAVATVASRPQCE
notes: tetratricopeptide repeat protein 5 (TTC5), human; TEV site between the 6xHis and the Twin-Strep tag; also called tetratricopeptide repeat protein 5; source: E. coli BL21(DE3), purified (Ni-NTA, Streptactin Sepharose); not shown: Twin-Strep, N-terminal, kept
For B1, the binding result in test [1] and in test [2] was “binds” each time.

These data come from PMC10403363, “Mechanism of ribosome-associated mRNA degradation during tubulin autoregulation” (Molecular Cell, 2023).
